Measurements reported in US12385058B2, “Herbicide tolerance protein, encoding gene thereof and use thereof” (Beijing Dabeinong Biotechnology Co., Ltd., priority 2018, dated 2025).
Changes are numbered by the printed parent chain.

B1: ALT02: ALT02 protein (369 amino acids), SEQ ID NO: 19; unmutated herbicide tolerant protein (protein)
chain: METDNVELAQSKRKVVLAEQGSFYIGGRTVTGPGKFDPSKPVIPYSNEGATFYINQMYVNFQAPVRPRGLPLVFWHGGGLTGHIWESTPDGRPGFQTLFVQDRHTVYTIDQPGRGRGNIPTFNGPFGQLEEESIVNTVTGNSSKEGAWVRDRLGPAPGQFFENSQFPRGYEDNYFKEMGFSPSISSDEIVDAVVKLVTHIGPCVLVTHSASGVLGMRVATHAKNVRGIVAYEPATSIFPKGKVPEIPPLADKKSQIFPPFEIQESYFKKLAKIPIQFVFGDNIPKNPKSAYWFLDWWRVTRYAHSLSLEAINKLGGQASLLDLPTAGLRGNTHFPFTDRNNVQVASLLSDFLGKHGLDQNESKLAAALE
modifications: the amino acid sequence of ALT02
B2: ALT04M1: herbicide tolerant protein, SEQ ID NO: 55; ALT04 with glycine to alanine at position 131 (protein)
chain: MSKRKVVLAEQGSFYIGGRTVTGPGKFDPSKPVIPYSNEGATFYINQMYVNFQAPVRPRGLPLVFWHGGGLTGHIWESTPDGRPGFQTLFVQDRHTVYTIDQPGRGRGNIPTFNGPFGQLEEESIVNTVTANSSKEGAWVRDRLGPAPGQFFENSQFPRGYEDNYFKEMGFSPSISSDEIVDAVVKLVTHIGPCVLVTHSASGVLGMRVATHAKNVRGIVAYEPATSIFPKGKVPEIPPLADKKSQIFPPFEIQESYFKKLAKIPIQFVFGDNIPKNPKSAYWFLDWWRVTRYAHSLSLEAINKLGGQASLLDLPTAGLRGNTHFPFTDRNNVQVASLLSDFLGKHGLDQ
modifications: the amino acid sequence of the ALT04M1
B3: ALT04M3: herbicide tolerant protein, SEQ ID NO: 63; ALT04 mutated at positions 35, 36, 131, 133 and 137 (protein)
chain: B2 chain with P35R, Y36A, S133V, G137R
modifications: the amino acid sequence of the ALT04M3
B4: ALT04M2: herbicide tolerant protein, SEQ ID NO: 59; ALT04 with serine to valine at position 133 (protein)
chain: B2 chain with A131G, S133V
modifications: the amino acid sequence of the ALT04M2
B5: ALT04: ALT04 protein (350 amino acids), SEQ ID NO: 51; unmutated herbicide tolerant protein (protein)
chain: B2 chain with A131G
modifications: the amino acid sequence of ALT04
B6: ALT01: ALT01 protein (398 amino acids), SEQ ID NO: 1; unmutated herbicide tolerant protein (protein, listed as Methylophilus sp.)
chain: MGTALLTGTSAASPVLAAGTGAIGIATLPLSTATAPAGTAAVGLAGSLALVVLAGGGSPTIGGATVTGPGLPAPSLPVIPTSAGGATPTIAGMTVAPGAPVAPAGLPLVPTHGGGLTGHITGSTPAGAPGPGTLPVGAAHTVTTIAGPGAGAGAIPTPAGPPGGLGGGSIVATVTGASSLGGATVAAALGPAPGGPPGASGPPAGTGAATPLGMGPSPSISSAGIVAAVVLLVTHIGPCVLVTHSASGVLGMAVATHALAVAGIVATGPATSIPPLGLVPGIPPLAALLSGIPPPPGIGGSTPLLLALIPIGPVPGAAIPLAPLSATTPLATTAVTATAHSLSLGAIALLGGGASLLALPTAGLAGATHPPPTAAAAVGVASLLSAPLGLHGLAGAGS
B7: ALT03: ALT03 protein (362 amino acids), SEQ ID NO: 35; unmutated herbicide tolerant protein (protein)
chain: METDNVELAQSKRKVVLAEQGSFYIGGRTVTGPGKFDPSKPVIPYSNEGATFYINQMYVNFQAPVRPRGLPLVFWHGGGLTGHIWESTPDGRPGFQTLFVQDRHTVYTIDQPGRGRGNIPTFNGPFGQLEEESIVNTVTGNSSKEGAWVRDRLGPAPGQFFENSQFPRGYEDNYFKEMGFSPSISSDEIVDAVVKLVTHIGPCVLVTHSASGVLGMRVATHAKNVRGIVAYEPATSIFPKGKVPEIPPLADKKSQIFPPFEIQESYFKKLAKIPIQFVFGDNIPKNPKSAYWFLDWWRVTRYAHSLSLEAINKLGGQASLLDLPTAGLRGNTHFPFTDRNNVQVASLLSDFLGKHGLDQNES
modifications: the amino acid sequence of ALT03

Test: Degradation of sulfometuron-methyl by purified herbicide tolerant proteins (enzymatic activity, HPLC)
Assay type: biochemical
Conditions: 0.2 μg enzyme, 0.2 mM substrate, pH 7.0, 30° C., 20 min
Procedure: (§1) Each reaction was timed beginning with the addition of reactive enzyme, and was terminated with 1 mL of dichloromethane. The organic phase after delamination was dehydrated with anhydrous sodium sulfate.
(§2) The above dehydrated reaction solution was blown dry with nitrogen and filtered by adding 1 mL of methanol, and 20 μL of the filtrate was subjected to liquid chromatography-mass spectrometry (LC-MS). High performance liquid chromatography (HPLC) conditions were as follows: mobile phase being methanol:water (80:20, V/V), Zorbax XDB-C18 chromatographic column (3.5 μm, 2.1×50 mm, Agilent, USA), column temperature being room temperature, UV detector, with a detection wavelength of 255 nm, a sample injection volume of 20 μL, and a flow rate of 0.25 mL/min. The primary ion mass spectrometry conditions were as follows: ion detection mode being multi-reactive ion detection; ion polarity being negative ion; ionization mode being electrospray ionization; a capillary voltage of 4000 volts; a dry gas temperature of 330° C., a flow rate of 10 L/min, an atomizing gas pressure of 35 psi, a collision voltage of 135 volts; and a mass scan range of 300-500 m/z. The secondary ion mass spectrometry conditions were as follows: a collision voltage of 90 volts; a mass scanning range of 30-400 m/z, and other conditions being the same as those of the primary ion mass spectrometry. It was identified by LC-MS that the metabolite of thifensulfuron-methyl was thiophene sulfonic acid, and the metabolite of metsulfuron-methyl, chlorimuron-ethyl, bensulfuron-methyl, sulfometuron-methyl or tribenuron-methyl was its corresponding sulfonic acid. The amount of the generated thiophene sulfonic acid (metabolite) was detected using high performance liquid chromatography (HPLC).
With B1 the “specific enzyme activity, sulfometuron-methyl” value was 2.0 µmol/min/mg.
In the case of B2, the “specific enzyme activity, sulfometuron-methyl” value is reported as 4.9 µmol/min/mg.
With B3 the “specific enzyme activity, sulfometuron-methyl” value was 1.0 µmol/min/mg.
In the case of B4, the “specific enzyme activity, sulfometuron-methyl” value is reported as 3.2 µmol/min/mg.
For B5, the “specific enzyme activity, sulfometuron-methyl” value was 1.7 µmol/min/mg.
With B6 the “specific enzyme activity, sulfometuron-methyl” value was 1.9 µmol/min/mg.
In the case of B7, the “specific enzyme activity, sulfometuron-methyl” value is reported as 1.8 µmol/min/mg.

Test: not given
Assay type: biochemical
Conditions: not given
Procedure: as §1, §2
With B2 the “efficiency of degrading bensulfuron-methyl, fold of ALT04” value was 1.9 fold and the “efficiency of degrading thifensulfuron-methyl, fold of ALT04” value was 2.8 fold.
In the case of B4, the “efficiency of degrading bensulfuron-methyl, fold of ALT04” value is reported as 1.2 fold and the “efficiency of degrading thifensulfuron-methyl, fold of ALT04” value is reported as 3.3 fold.

Same assay, conditions: 0.2 μg enzyme, 0.2 mM substrate, pH 7.0, 30° C., 20 min
With B1 the “specific enzyme activity, bensulfuron-methyl” value was 1.8 µmol/min/mg, the “specific enzyme activity, chlorimuron-ethyl” value was 2.8 µmol/min/mg and the “specific enzyme activity, metsulfuron-methyl” value was 2.1 µmol/min/mg. The “specific enzyme activity, thifensulfuron-methyl” value was 28.8 µmol/min/mg and the “specific enzyme activity, tribenuron-methyl” value was 1.9 µmol/min/mg.
For B2, the “specific enzyme activity, bensulfuron-methyl” value was 3.5 µmol/min/mg, the “specific enzyme activity, chlorimuron-ethyl” value was 9.4 µmol/min/mg and the “specific enzyme activity, metsulfuron-methyl” value was 2.0 µmol/min/mg. For the same molecule, the “specific enzyme activity, thifensulfuron-methyl” value was 80.9 µmol/min/mg and the “specific enzyme activity, tribenuron-methyl” value was 2.8 µmol/min/mg.
With B3 the “specific enzyme activity, bensulfuron-methyl” value was 0.6 µmol/min/mg, the “specific enzyme activity, chlorimuron-ethyl” value was 34.6 µmol/min/mg and the “specific enzyme activity, metsulfuron-methyl” value was 3.8 µmol/min/mg. The “specific enzyme activity, thifensulfuron-methyl” value was 16.0 µmol/min/mg and the “specific enzyme activity, tribenuron-methyl” value was 3.0 µmol/min/mg.
With B4 the “specific enzyme activity, bensulfuron-methyl” value was 2.2 µmol/min/mg, the “specific enzyme activity, chlorimuron-ethyl” value was 8.1 µmol/min/mg and the “specific enzyme activity, metsulfuron-methyl” value was 1.1 µmol/min/mg. For the same molecule, the “specific enzyme activity, thifensulfuron-methyl” value was 95.4 µmol/min/mg and the “specific enzyme activity, tribenuron-methyl” value was 9.7 µmol/min/mg.
With B5 the “specific enzyme activity, bensulfuron-methyl” value was 1.5 µmol/min/mg, the “specific enzyme activity, chlorimuron-ethyl” value was 2.4 µmol/min/mg and the “specific enzyme activity, metsulfuron-methyl” value was 1.8 µmol/min/mg. For the same molecule, the “specific enzyme activity, thifensulfuron-methyl” value was 24.7 µmol/min/mg and the “specific enzyme activity, tribenuron-methyl” value was 1.6 µmol/min/mg.
For B6, the “specific enzyme activity, bensulfuron-methyl” value was 1.7 µmol/min/mg, the “specific enzyme activity, chlorimuron-ethyl” value was 2.7 µmol/min/mg and the “specific enzyme activity, metsulfuron-methyl” value was 2.0 µmol/min/mg. For the same molecule, the “specific enzyme activity, thifensulfuron-methyl” value was 27.4 µmol/min/mg and the “specific enzyme activity, tribenuron-methyl” value was 1.8 µmol/min/mg.
With B7 the “specific enzyme activity, bensulfuron-methyl” value was 1.6 µmol/min/mg, the “specific enzyme activity, chlorimuron-ethyl” value was 2.6 µmol/min/mg and the “specific enzyme activity, metsulfuron-methyl” value was 1.9 µmol/min/mg. For the same molecule, the “specific enzyme activity, thifensulfuron-methyl” value was 26.0 µmol/min/mg and the “specific enzyme activity, tribenuron-methyl” value was 1.7 µmol/min/mg.
